The supplement of paper PMC10567573

B1: PKD2L1 (parent)
chain: VFIFYYVVEEILELHIHRLRYLSS

Variants of: B1
Assay: protein stability index of a GFP-peptide fusion (GPS, HEK-293T) (PSI 1-6); higher = more stable
Conditions: c terminus: a fixed tail appended
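Note: lentivirally expressed fusions sorted by FACS into six bins by GFP to DsRed ratio, PSI derived from sequencing read proportions per bin multiplied by bin number.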

| Variant | protein stability index |
| --- | --- |
| VFIFYYVVEEIYELHIHRLRYLSS | 2.89 |
| VFIFYYVVEEIMELHIHRLRYLSS | 2.73 |
| VFIFYYVVEEIPELHIHRLRYLSS | 1.95 |
| VFIFYYVVEEIHELHIHRLRYLSS | 3.78 |
| VFIFYYVVEEIGELHIHRLRYLSS | 1.89 |
| VFIFYYVVEEIDELHIHRLRYLSS | 2.63 |
| VFIFYYVVEEIFELHIHRLRYLSS | 3.21 |
| VFIFYYVVEEIAELHIHRLRYLSS | 2.33 |
| VFIFYYVVEEICELHIHRLRYLSS | 2.92 |
| VFIFYYVVEEITELHIHRLRYLSS | 3.03 |
| VFIFYYVVEEIKELHIHRLRYLSS | 2.59 |
| VFIFYYVVEEINELHIHRLRYLSS | 2.41 |
| VFIFYYVVEEIEELHIHRLRYLSS | 2.76 |
| VFIFYYVVEEIWELHIHRLRYLSS | 2.15 |
| VFIFYYVVEEIIELHIHRLRYLSS | 2.21 |
| VFIFYYVVEEIQELHIHRLRYLSS | 3.48 |
| VFIFYYVVEEIRELHIHRLRYLSS | 2.27 |
| VFIFYYVVEEILILHIHRLRYLSS | 3.04 |
| VFIFYYVVEEILPLHIHRLRYLSS | 2.44 |
| VFIFYYVVEEILVLHIHRLRYLSS | 3.39 |
| VFIFYYVVEEILDLHIHRLRYLSS | 2.04 |
| VFIFYYVVEEILFLHIHRLRYLSS | 3.37 |
| VFIFYYVVEEILHLHIHRLRYLSS | 3.19 |
| VFIFYYVVEEILYLHIHRLRYLSS | 1.93 |

| Variant | protein stability index |
| --- | --- |
| VFIFYYVVEEILWLHIHRLRYLSS | 3.26 |
| VFIFYYVVEEILCLHIHRLRYLSS | 3.03 |
| VFIFYYVVEEILLLHIHRLRYLSS | 3.25 |
| VFIFYYVVEEILMLHIHRLRYLSS | 2.72 |
| VFIFYYVVEEILRLHIHRLRYLSS | 3.68 |
| VFIFYYVVEEILSLHIHRLRYLSS | 1.92 |
| VFIFYYVVEEILKLHIHRLRYLSS | 2.36 |
| VFIFYYVVEEILTLHIHRLRYLSS | 2.24 |
| VFYFYYVVEEILELHIHRLRYLSS | 3.43 |
| VFMFYYVVEEILELHIHRLRYLSS | 3.13 |
| VFRFYYVVEEILELHIHRLRYLSS | 3.57 |
| VFNFYYVVEEILELHIHRLRYLSS | 3.08 |
| VFLFYYVVEEILELHIHRLRYLSS | 2.25 |
| VFSFYYVVEEILELHIHRLRYLSS | 2.73 |
| VFEFYYVVEEILELHIHRLRYLSS | 4 |
| VFFFYYVVEEILELHIHRLRYLSS | 2.89 |
| VFHFYYVVEEILELHIHRLRYLSS | 1.62 |
| VFGFYYVVEEILELHIHRLRYLSS | 2.35 |
| VFDFYYVVEEILELHIHRLRYLSS | 3.59 |
| VFPFYYVVEEILELHIHRLRYLSS | 3.06 |
| VFAFYYVVEEILELHIHRLRYLSS | 1.69 |
| VFTFYYVVEEILELHIHRLRYLSS | 1.54 |
| VFIFYYVVEAILELHIHRLRYLSS | 3.28 |
| VFIFYYVVECILELHIHRLRYLSS | 1.36 |

| Variant | protein stability index |
| --- | --- |
| VFIFYYVVEWILELHIHRLRYLSS | 2.69 |
| VFIFYYVVEHILELHIHRLRYLSS | 2.68 |
| VFIFYYVVEDILELHIHRLRYLSS | 2.75 |
| VFIFYYVVEPILELHIHRLRYLSS | 2.76 |
| VFIFYYVVERILELHIHRLRYLSS | 2.41 |
| VFIFYYVVEIILELHIHRLRYLSS | 2.56 |
| VFIFYYVVELILELHIHRLRYLSS | 2.35 |
| VFIFYYVVETILELHIHRLRYLSS | 1.62 |
| VFIFYYVVENILELHIHRLRYLSS | 2.86 |
| VFIYYYVVEEILELHIHRLRYLSS | 2.36 |
| VFIHYYVVEEILELHIHRLRYLSS | 2.09 |
| VFISYYVVEEILELHIHRLRYLSS | 2.7 |
| VFIWYYVVEEILELHIHRLRYLSS | 1.29 |
| VFIVYYVVEEILELHIHRLRYLSS | 3.48 |
| VFIIYYVVEEILELHIHRLRYLSS | 1.48 |
| VFIKYYVVEEILELHIHRLRYLSS | 2.57 |
| VFIMYYVVEEILELHIHRLRYLSS | 2.56 |
| VFIAYYVVEEILELHIHRLRYLSS | 4 |
| VFIQYYVVEEILELHIHRLRYLSS | 2.99 |
| VFINYYVVEEILELHIHRLRYLSS | 2.21 |
| VFIGYYVVEEILELHIHRLRYLSS | 3.56 |
| VFIFYYVVEEVLELHIHRLRYLSS | 3.46 |
| VFIFYYVVEESLELHIHRLRYLSS | 3.09 |
| VFIFYYVVEECLELHIHRLRYLSS | 4.54 |

| Variant | protein stability index |
| --- | --- |
| VFIFYYVVEEGLELHIHRLRYLSS | 2.73 |
| VFIFYYVVEEQLELHIHRLRYLSS | 3.96 |
| VFIFYYVVEENLELHIHRLRYLSS | 3.75 |
| VFIFYYVVEEPLELHIHRLRYLSS | 1.89 |
| VFIFYYVVEEYLELHIHRLRYLSS | 2.68 |
| VFIFYYVVEEDLELHIHRLRYLSS | 2.57 |
| VFIFYYVVEEHLELHIHRLRYLSS | 1.24 |
| VFIFYYVVEEELELHIHRLRYLSS | 3.87 |
| VFIFYYVVEEFLELHIHRLRYLSS | 3.73 |
| VFIFYYVVEETLELHIHRLRYLSS | 2.64 |
| VFIFYYVVEEKLELHIHRLRYLSS | 2.51 |
| VFIFYYVVEEMLELHIHRLRYLSS | 2.46 |
| VFIFYEVVEEILELHIHRLRYLSS | 1.79 |
| VFIFYDVVEEILELHIHRLRYLSS | 2.42 |
| VFIFYFVVEEILELHIHRLRYLSS | 1.65 |
| VFIFYTVVEEILELHIHRLRYLSS | 3.44 |
| VFIFYMVVEEILELHIHRLRYLSS | 2.17 |
| VFIFYNVVEEILELHIHRLRYLSS | 2.01 |
| VFIFYRVVEEILELHIHRLRYLSS | 2.78 |
| VFIFYLVVEEILELHIHRLRYLSS | 3.99 |
| VFIFYWVVEEILELHIHRLRYLSS | 3.85 |
| VFIFYHVVEEILELHIHRLRYLSS | 2.85 |
| VFIFYAVVEEILELHIHRLRYLSS | 1.41 |
| VFIFYSVVEEILELHIHRLRYLSS | 4.37 |

| Variant | protein stability index |
| --- | --- |
| VFIFYKVVEEILELHIHRLRYLSS | 2.12 |
| VFIFYIVVEEILELHIHRLRYLSS | 2.85 |
| VFIFYPVVEEILELHIHRLRYLSS | 1.54 |
| VFIFYYVFEEILELHIHRLRYLSS | 3.06 |
| VFIFYYVQEEILELHIHRLRYLSS | 1.9 |
| VFIFYYVIEEILELHIHRLRYLSS | 3.22 |
| VFIFYYVHEEILELHIHRLRYLSS | 2.51 |
| VFIFYYVTEEILELHIHRLRYLSS | 1.93 |
| VFIFYYVDEEILELHIHRLRYLSS | 1.41 |
| VFIFYYVLEEILELHIHRLRYLSS | 2.74 |
| VFIFYYVMEEILELHIHRLRYLSS | 3.67 |
| VFIFYYVWEEILELHIHRLRYLSS | 2.57 |
| VFIFYYVGEEILELHIHRLRYLSS | 4.19 |
| VFIFYYVNEEILELHIHRLRYLSS | 2.16 |
| VFIFYYVVEEILELNIHRLRYLSS | 3.63 |
| VFIFYYVVEEILELTIHRLRYLSS | 2.71 |
| VFIFYYVVEEILELCIHRLRYLSS | 2.86 |
| VFIFYYVVEEILELDIHRLRYLSS | 2.24 |
| VFIFYYVVEEILELVIHRLRYLSS | 2.21 |
| VFIFYYVVEEILELPIHRLRYLSS | 3.51 |
| VFIFYYVVEEILELRIHRLRYLSS | 2.97 |
| VFIFYYVVEEILELWIHRLRYLSS | 2.13 |
| VFIFYYVVEEILELMIHRLRYLSS | 3.1 |
| VFIFYYVVEEILELYIHRLRYLSS | 3.19 |

| Variant | protein stability index |
| --- | --- |
| VFIFYYVVSEILELHIHRLRYLSS | 1.63 |
| VFIFYYVVQEILELHIHRLRYLSS | 2.61 |
| VFIFYYVVIEILELHIHRLRYLSS | 3.16 |
| VFIFYYVVWEILELHIHRLRYLSS | 4.55 |
| VFIFYYVVNEILELHIHRLRYLSS | 2.21 |
| VFIFYYVVPEILELHIHRLRYLSS | 2.49 |
| VFIFYYVVGEILELHIHRLRYLSS | 1.71 |
| VFIFYYVVCEILELHIHRLRYLSS | 1.88 |
| VFIFYYVVYEILELHIHRLRYLSS | 1.67 |
| VFIFYYVVREILELHIHRLRYLSS | 4 |
| VFIFYYVVDEILELHIHRLRYLSS | 3.91 |
| VFIFYYVVKEILELHIHRLRYLSS | 3.5 |
| VFIFYYPVEEILELHIHRLRYLSS | 2.85 |
| VFIFYYWVEEILELHIHRLRYLSS | 2.54 |
| VFIFYYYVEEILELHIHRLRYLSS | 1.75 |
| VFIFYYGVEEILELHIHRLRYLSS | 2.25 |
| VFIFYYFVEEILELHIHRLRYLSS | 1.93 |
| VFIFYYHVEEILELHIHRLRYLSS | 3.16 |
| VFIFYYCVEEILELHIHRLRYLSS | 3.58 |
| VFIFYYKVEEILELHIHRLRYLSS | 3.16 |
| VFIFYYDVEEILELHIHRLRYLSS | 3.12 |
| VFIFYYSVEEILELHIHRLRYLSS | 4.39 |
| VFIFYYIVEEILELHIHRLRYLSS | 2.11 |
| VFIFYYAVEEILELHIHRLRYLSS | 4.67 |

| Variant | protein stability index |
| --- | --- |
| VFIFYYNVEEILELHIHRLRYLSS | 2.13 |
| VFIFYYQVEEILELHIHRLRYLSS | 3.24 |
| VFIFDYVVEEILELHIHRLRYLSS | 3.1 |
| VFIFSYVVEEILELHIHRLRYLSS | 2.86 |
| VFIFMYVVEEILELHIHRLRYLSS | 2.79 |
| VFIFNYVVEEILELHIHRLRYLSS | 2.63 |
| VFIFKYVVEEILELHIHRLRYLSS | 3.67 |
| VFIFWYVVEEILELHIHRLRYLSS | 2.24 |
| VFIFEYVVEEILELHIHRLRYLSS | 2.14 |
| VFIFTYVVEEILELHIHRLRYLSS | 2.27 |
| VFIFGYVVEEILELHIHRLRYLSS | 1.31 |
| VFIFPYVVEEILELHIHRLRYLSS | 1.66 |
| VFIFFYVVEEILELHIHRLRYLSS | 2.11 |
| VFIFHYVVEEILELHIHRLRYLSS | 3.91 |
| VFIFYYVVEEILEVHIHRLRYLSS | 3.38 |
| VFIFYYVVEEILEHHIHRLRYLSS | 2.69 |
| VFIFYYVVEEILEDHIHRLRYLSS | 1.93 |
| VFIFYYVVEEILEEHIHRLRYLSS | 2.14 |
| VFIFYYVVEEILEPHIHRLRYLSS | 3.5 |
| VFIFYYVVEEILESHIHRLRYLSS | 2.8 |
| VFIFYYVVEEILEMHIHRLRYLSS | 2.66 |
| VFIFYYVVEEILECHIHRLRYLSS | 2.19 |
| VFIFYYVVEEILENHIHRLRYLSS | 3.64 |
| VFIFYYVVEEILEYHIHRLRYLSS | 2.14 |

| Variant | protein stability index |
| --- | --- |
| VFIFYYVVEEILEKHIHRLRYLSS | 2.29 |
| VFIFYYVVEEILERHIHRLRYLSS | 2.59 |
| VFIFYYVVEEILEWHIHRLRYLSS | 1.99 |
| VFIFYYVVEEILEIHIHRLRYLSS | 2.22 |
| VFIFYYVVEEILETHIHRLRYLSS | 4.48 |
| VFIFYYVVEEILELHMHRLRYLSS | 2.9 |
| VFIFYYVVEEILELHWHRLRYLSS | 3.5 |
| VFIFYYVVEEILELHLHRLRYLSS | 2.92 |
| VFIFYYVVEEILELHKHRLRYLSS | 2.34 |
| VFIFYYVVEEILELHRHRLRYLSS | 2.6 |
| VFIFYYVVEEILELHEHRLRYLSS | 2.46 |
| VFIFYYVVEEILELHYHRLRYLSS | 2.18 |
| VFIFYYVVEEILELHFHRLRYLSS | 3.25 |
| VFIFYYVVEEILELHAHRLRYLSS | 2.11 |
| VFIFYYVVEEILELHSHRLRYLSS | 3.37 |
| VFIFYYVVEEILELHGHRLRYLSS | 3.3 |
| VFIFYYVVEEILELHCHRLRYLSS | 3.5 |
| VFIFYYVVEEILELHNHRLRYLSS | 3.35 |
| VFIFYYVVEEILELHDHRLRYLSS | 3.73 |
| VFIFYYVVEEILELHIARLRYLSS | 2.18 |
